Biological target: T1, GST alone (UniProt P08515 1-218 = GST)
T1 construct: Control protein in the pull-downs; also called purified GST; glutathione-S-transferase
Assay: pull-down of purified His6-tagged fragment with GST fusions, Western blot with anti-Xpress antibody
Protocol: A His₆-tagged recombinant protein comprising a C-terminal region of SYNCRIP (amino acids 401-561) was expressed in E. coli using pREST plasmid (Invitrogen). The recombinant protein was recovered from inclusion bodies by using a denaturing solution (6 M guanidine-HCl, 10 mM Tris-HCl (pH 8.0), 0.5 M NaCl, 1 mM β-mercapto-ethanol) and purified with ProBond resin. The denatured recombinant protein was refolded by dialysis against 10 mM Tris-HCl (pH 8.0), 10 mM β-mercaptoethanol, 0.1 M NaCl and 1 mM EDTA, with gradual decrease of urea concentration from 6 M to 0.001 M. The dialysate was centrifuged at 12,000 rpm at 4° C. for 20 min to remove the malfolded part and insoluble matter. After aliquots were incubated with various GST-fusion proteins with one of the Syt-II C2 domains, bound proteins were recovered and subjected to Western blotting using anti-Xpress antibody (Invitrogen).

T1 sequence (P08515 whole entry): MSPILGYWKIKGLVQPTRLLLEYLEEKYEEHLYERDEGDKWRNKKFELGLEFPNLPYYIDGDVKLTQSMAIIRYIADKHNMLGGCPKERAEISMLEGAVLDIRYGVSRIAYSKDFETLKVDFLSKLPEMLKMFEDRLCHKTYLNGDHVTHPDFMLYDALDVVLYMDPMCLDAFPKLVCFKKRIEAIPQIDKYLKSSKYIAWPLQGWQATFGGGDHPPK

B1: His6-tagged recombinant protein comprising a C-terminal region of SYNCRIP (amino acids 401-561) (other, not shown: small tags and cut ends)
chain: IEIVFAKPPDQKRKERKAQRQAAKNQMYDDYYYYGPPHMPPPTRGRGRGGRGGYGYPPDYYGYEDYYDYYGYDYHNYRGGYEDPYYGYEDFQVGARGRGGRGARGAAPSRGRGAAPPRGRAGYSQRGGPGSARGVRGARGGAQQQRGRGGKGVEAGPDLLQ
notes: also called C-terminal region of SYBCRIP
- binding result: no binding

Source: patent US20020106724A1 (RIKEN, published 2002)
